Measurements: patent US10087225B2, “Formulation of MK2 inhibitor peptides” (MOERAE MATRIX, INC., priority 2015, dated 2018)

Experiments:
Test in all cases: Kinase Profiling Assay
Type in all cases: biochemical
[1] = target: Ret(V804M)(h) (Homo sapiens, UniProt P07949, V804M)
[2] = target: T1, TAO1(h) (Homo sapiens, UniProt Q7L7X3)
T1 sequence (Q7L7X3 1-1001): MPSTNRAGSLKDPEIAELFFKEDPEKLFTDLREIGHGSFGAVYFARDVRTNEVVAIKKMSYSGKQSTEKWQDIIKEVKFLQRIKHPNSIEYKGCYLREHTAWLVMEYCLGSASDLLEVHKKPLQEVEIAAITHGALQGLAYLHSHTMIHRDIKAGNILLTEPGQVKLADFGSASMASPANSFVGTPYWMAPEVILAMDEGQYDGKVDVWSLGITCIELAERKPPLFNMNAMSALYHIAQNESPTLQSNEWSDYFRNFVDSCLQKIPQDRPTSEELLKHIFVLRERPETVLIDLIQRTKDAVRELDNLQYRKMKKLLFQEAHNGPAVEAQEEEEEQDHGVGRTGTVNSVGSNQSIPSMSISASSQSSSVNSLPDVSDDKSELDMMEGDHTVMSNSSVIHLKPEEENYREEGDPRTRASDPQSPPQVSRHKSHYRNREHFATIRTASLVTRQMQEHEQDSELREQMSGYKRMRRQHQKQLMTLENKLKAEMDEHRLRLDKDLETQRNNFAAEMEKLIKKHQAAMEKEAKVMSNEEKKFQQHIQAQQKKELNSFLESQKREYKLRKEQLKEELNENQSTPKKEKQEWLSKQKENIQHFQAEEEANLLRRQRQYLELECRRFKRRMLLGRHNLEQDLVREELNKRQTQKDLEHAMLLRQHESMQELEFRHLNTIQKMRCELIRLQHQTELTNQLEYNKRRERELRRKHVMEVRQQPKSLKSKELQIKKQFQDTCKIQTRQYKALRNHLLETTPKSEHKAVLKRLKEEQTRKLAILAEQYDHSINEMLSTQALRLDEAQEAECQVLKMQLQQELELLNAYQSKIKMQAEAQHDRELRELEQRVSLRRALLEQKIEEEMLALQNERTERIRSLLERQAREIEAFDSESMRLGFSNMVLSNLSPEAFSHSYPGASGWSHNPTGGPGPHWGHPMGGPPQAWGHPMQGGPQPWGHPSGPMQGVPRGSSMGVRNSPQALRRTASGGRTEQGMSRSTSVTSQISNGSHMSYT

[3] = target: T2, EphB3(h) (Homo sapiens, UniProt P54753); conditions: 100 μM
T2 sequence (P54753 34-998): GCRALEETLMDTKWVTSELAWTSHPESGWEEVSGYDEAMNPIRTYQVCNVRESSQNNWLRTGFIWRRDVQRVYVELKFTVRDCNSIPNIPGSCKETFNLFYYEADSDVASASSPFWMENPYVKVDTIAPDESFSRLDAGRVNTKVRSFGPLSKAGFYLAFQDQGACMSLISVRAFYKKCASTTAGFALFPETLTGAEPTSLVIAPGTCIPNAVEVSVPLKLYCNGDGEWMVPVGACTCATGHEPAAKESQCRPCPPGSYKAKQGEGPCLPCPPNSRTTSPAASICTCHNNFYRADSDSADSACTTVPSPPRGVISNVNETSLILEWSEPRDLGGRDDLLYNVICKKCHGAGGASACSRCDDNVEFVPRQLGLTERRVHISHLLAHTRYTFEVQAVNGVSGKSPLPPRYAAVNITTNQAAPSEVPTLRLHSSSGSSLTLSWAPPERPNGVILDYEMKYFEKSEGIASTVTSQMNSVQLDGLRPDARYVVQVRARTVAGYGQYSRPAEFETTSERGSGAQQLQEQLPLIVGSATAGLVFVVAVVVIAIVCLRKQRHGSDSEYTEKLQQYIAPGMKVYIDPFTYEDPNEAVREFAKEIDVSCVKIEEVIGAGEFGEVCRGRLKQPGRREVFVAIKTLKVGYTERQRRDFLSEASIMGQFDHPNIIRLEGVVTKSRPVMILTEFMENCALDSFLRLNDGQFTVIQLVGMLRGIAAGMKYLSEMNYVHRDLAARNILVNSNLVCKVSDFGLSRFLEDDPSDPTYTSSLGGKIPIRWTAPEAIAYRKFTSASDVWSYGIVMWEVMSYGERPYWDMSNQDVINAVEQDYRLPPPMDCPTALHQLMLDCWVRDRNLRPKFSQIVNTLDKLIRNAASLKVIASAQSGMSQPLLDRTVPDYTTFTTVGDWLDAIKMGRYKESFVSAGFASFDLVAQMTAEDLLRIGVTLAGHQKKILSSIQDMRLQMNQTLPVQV

[4] = target: T3, MKK6(h) (Homo sapiens, UniProt P52564); conditions: 100 μM
T3 sequence (P52564 1-334): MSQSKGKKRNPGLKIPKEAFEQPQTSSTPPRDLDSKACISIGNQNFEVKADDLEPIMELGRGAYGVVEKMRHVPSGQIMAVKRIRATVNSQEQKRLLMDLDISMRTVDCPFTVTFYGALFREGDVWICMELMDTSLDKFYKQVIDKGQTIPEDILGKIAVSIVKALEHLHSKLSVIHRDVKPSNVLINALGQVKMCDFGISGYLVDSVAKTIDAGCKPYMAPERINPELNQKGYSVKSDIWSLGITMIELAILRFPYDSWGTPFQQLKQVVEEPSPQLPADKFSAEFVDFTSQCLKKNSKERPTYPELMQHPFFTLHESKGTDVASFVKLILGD

[5] = target: T4, PDK1(h) (Homo sapiens, UniProt O15530); conditions: 100 μM
T4 sequence (O15530 1-556): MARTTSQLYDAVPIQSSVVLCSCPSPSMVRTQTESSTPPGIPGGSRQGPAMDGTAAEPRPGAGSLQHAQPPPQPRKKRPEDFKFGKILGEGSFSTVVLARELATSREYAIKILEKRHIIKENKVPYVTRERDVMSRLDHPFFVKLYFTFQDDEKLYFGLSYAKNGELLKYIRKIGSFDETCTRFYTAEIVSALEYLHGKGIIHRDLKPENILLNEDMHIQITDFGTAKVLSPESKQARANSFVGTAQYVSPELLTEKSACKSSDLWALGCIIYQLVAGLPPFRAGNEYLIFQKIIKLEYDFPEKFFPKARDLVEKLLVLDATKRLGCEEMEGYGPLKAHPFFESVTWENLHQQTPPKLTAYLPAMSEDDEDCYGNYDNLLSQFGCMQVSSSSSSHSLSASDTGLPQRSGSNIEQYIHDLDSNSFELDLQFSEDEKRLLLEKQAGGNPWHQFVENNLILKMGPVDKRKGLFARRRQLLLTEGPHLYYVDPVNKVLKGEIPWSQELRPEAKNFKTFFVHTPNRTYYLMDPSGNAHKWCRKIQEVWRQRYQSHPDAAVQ

[6] = target: Pim-1(h) (Homo sapiens, UniProt P11309); conditions: 100 μM
Sequence of Pim-1(h) (P11309 whole entry): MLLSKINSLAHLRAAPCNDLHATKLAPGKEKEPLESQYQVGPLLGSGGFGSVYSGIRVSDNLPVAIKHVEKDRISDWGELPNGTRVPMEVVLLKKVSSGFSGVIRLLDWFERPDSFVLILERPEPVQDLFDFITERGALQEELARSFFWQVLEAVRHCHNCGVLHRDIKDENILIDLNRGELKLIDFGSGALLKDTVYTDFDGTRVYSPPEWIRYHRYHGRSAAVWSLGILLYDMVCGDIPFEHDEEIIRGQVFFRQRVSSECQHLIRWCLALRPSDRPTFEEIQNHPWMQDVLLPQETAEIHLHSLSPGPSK

With H-YARAAARQARAKALARQLGVAA-OH [MMI-0100] the activity at 100 µM [1] was 92% and the activity at 100 µM [2] was 99%.
“HRRIKAWLKKIKALARQLGVAA (Mammalian) [MMI-0500]” was tested, and the “% activity” value [3] was 79%, the “% activity” value [4] was 18% and the “% activity” value ([1]; 100 μM) was 36%. The “% activity” value [5] was 178%, the “% activity” value ([2]; 100 μM) was 24% and the “% activity” value [6] was 0%.
For “YARAAARQARAKALNRQLGVA (Mammalian) [MMI-0200]”, the “% activity” value [3] was 128%, the “% activity” value [4] was 98% and the “% activity” value [5] was 143%. For the same substance, the “% activity” value [6] was 18%.
